Assay results published in patent US20220411536A1 (NUMAB THERAPEUTICS, published 2022).

Legend:
[1] = molecular target: T1, human PD-L1 expressed on cells (CHO-PD-L1, HCC1954, HCC827) (human, UniProt Q9NZQ7 19-290); assay: flow cytometry with human SA, inhibition of PD-1 binding to HCC1954 cells
T1 construct: whole, on cells; also called hPD-L1; PD-L1 expressing cells

[2] = molecular target: T1, human PD-L1 expressed on cells …; assay: flow cytometry with human SA, inhibition of PD-1 binding to HCC827 cells
[3] = molecular target: T1, human PD-L1 expressed on cells …; assay: cell-based or functional assay
[4] = molecular target: T1, human PD-L1 expressed on cells …; assay: flow cytometry with human SA, inhibition of PD-1 binding to HCC1954 cells; remark: listed apart in the source
[5] = molecular target: CD137 on transgenic NF-kB Jurkat reporter cells (Homo sapiens (Human), UniProt Q07011 24-255); assay: cell-based or functional assay

B1: PRO1814 (multispecific antibody)
chain: DIQMTQSPSSLSASVGDRVTITCQASQSINDYLAWYQQKPGKAPKLLIYKASTLASGVPSRFSGSGSGTDFTLTISSLQPEDFATYYCQAAYIITDIDNVFGTGTKVTVLGGGGGSEVQLVESGGGLVQPGGSLRLSCAASGFTFTDYTMDWVRQAPGKGLEWVADVNPNSGGSIYNQRFKGRFTLSVDRSKNTLYLQMNSLRAEDTAVYYCARNLGPSFYFDYWGQGTLVTVSSGGGGSGGGGSGGGGSGGGGSDIQMTQSPSSLSASVGDRVTITCKASQDVSIGVAWYQQKPGKAPKLLIYSASYRYTGVPSRFSGSGSGTDFTLTISSLQPEDFATYYCQQYYIYPYTFGTGTKVTVLGGGGGSQVQLQESGPGLVKPSETLSLTCKVSGFSFSSGYDMCWIRQPPGKGLEWIGCVVAGSVDITYYASWAKGRVTISVDSSKNQFSLKLSSVTAADTAVYYCARKDAYSDAFNLWGQGTLVTVSSGGGGSGGGGSIQMTQSPSSLSASVGDRVTITCQSSESVYSNNQLSWYQQKPGQPPKLLIYDASDLASGVPSRFSGSGSGTDFTLTISSLQPEDFATYYCAGGFSSSSDTAFGGGTKLTVLGGGGGSGGGGSGGGGSGGGGSEVQLVESGGGLVQPGGSLRLSCAASGFSLSSNAMGWVRQAPGKGLEYIGIISVGGFTYYASWAKGRFTISRDNSKNTVYLQMNSLRAEDTATYFCARDRHGGDSSGAFYLWGQGTLVTVSS
notes: also called PR01814
IC50 [1]: 0.0525 µg/mL | IC50 [2]: 53.8 µg/mL

B2: PRO1852 (multispecific antibody)
chain: DIQMTQSPSSLSASVGDRVTITCQASQSINDYLAWYQQKPGKAPKLLIYKASTLASGVPSRFSGSGSGTDFTLTISSLQPEDFATYYCQAAYIITDIDNVFGTGTKVTVLGGGGGSEVQLVESGGGLVQPGGSLRLSCAASGFTFTDYTMDWVRQAPGKCLEWVADVNPNSGGSIYNQRFKGRFTLSVDRSKNTLYLQMNSLRAEDTAVYYCARNLGPSFYFDYWGQGTLVTVSSGGGGSGGGGSGGGGSGGGGSDIQMTQSPSSLSASVGDRVTITCKASQDVSIGVAWYQQKPGKAPKLLIYSASYRYTGVPSRFSGSGSGTDFTLTISSLQPEDFATYYCQQYYIYPYTFGCGTKVTVLGGGGGSQVQLQESGPGLVKPSETLSLTCKVSGFSFSSGYDMCWIRQPPGKGLEWIGCVVAGSVDITYYASWAKGRVTISVDSSKNQFSLKLSSVTAADTAVYYCARKDAYSDAFNLWGQGTLVTVSSGGGGSGGGGSIQMTQSPSSLSASVGDRVTITCQSSESVYSNNQLSWYQQKPGQPPKLLIYDASDLASGVPSRFSGSGSGTDFTLTISSLQPEDFATYYCAGGFSSSSDTAFGGGTKLTVLGGGGGSGGGGSGGGGSGGGGSEVQLVESGGGLVQPGGSLRLSCAASGFSLSSNAMGWVRQAPGKGLEYIGIISVGGFTYYASWAKGRFTISRDNSKNTVYLQMNSLRAEDTATYFCARDRHGGDSSGAFYLWGQGTLVTVSS
IC50 [1]: 0.0556 µg/mL | IC50 [2]: 16.8 µg/mL

B3: PRO1854 (multispecific antibody)
chain: DIQMTQSPSSLSASVGDRVTITCQASQSINDYLAWYQQKPGKAPKLLIYKASTLASGVPSRFSGSGSGTDFTLTISSLQPEDFATYYCQAGYIITDIDNVFGTGTKVTVLGGGGGSEVQLVESGGGLVQPGGSLRLSCAASGFTFTDYTMDWVRQAPGKCLEWVADVNPNSGGSIYNQRFKGRFTLSVDRSKNTLYLQMNSLRAEDTAVYYCARNLGPSFYFDYWGQGTLVTVSSGGGGSGGGGSGGGGSGGGGSDIQMTQSPSSLSASVGDRVTITCKASQDVSIGVAWYQQKPGKAPKLLIYSASYRYTGVPSRFSGSGSGTDFTLTISSLQPEDFATYYCQQYYIYPYTFGCGTKVTVLGGGGGSQVQLQESGPGLVKPSETLSLTCKVSGFSFSSGYDMCWIRQPPGKGLEWIGCVVAGSVDITYYASWAKGRVTISVDSSKNQFSLKLSSVTAADTAVYYCARKDAASDAFNLWGQGTLVTVSSGGGGSGGGGSIQMTQSPSSLSASVGDRVTITCQSSESVYSNNQLSWYQQKPGQPPKLLIYDASDLASGVPSRFSGSGSGTDFTLTISSLQPEDFATYYCAGGFSSSSDTAFGGGTKLTVLGGGGGSGGGGSGGGGSGGGGSEVQLVESGGGLVQPGGSLRLSCAASGFSLSSNAMGWVRQAPGKGLEYIGIISVGGFTYYASWAKGRFTISRDNSKNTVYLQMNSLRAEDTATYFCARDRHGGDSSGAFYLWGQGTLVTVSS
IC50 [1]: 0.0561 µg/mL | IC50 [2]: 53.5 µg/mL

B4: PRO1853 (multispecific antibody)
chain: DIQMTQSPSSLSASVGDRVTITCQASQSINDYLAWYQQKPGKAPKLLIYKASTLASGVPSRFSGSGSGTDFTLTISSLQPEDFATYYCQAGYIITDIDNVFGTGTKVTVLGGGGGSEVQLVESGGGLVQPGGSLRLSCAASGFTFTDYTMDWVRQAPGKGLEWVADVNPNSGGSIYNQRFKGRFTLSVDRSKNTLYLQMNSLRAEDTAVYYCARNLGPSFYFDYWGQGTLVTVSSGGGGSGGGGSGGGGSGGGGSDIQMTQSPSSLSASVGDRVTITCKASQDVSIGVAWYQQKPGKAPKLLIYSASYRYTGVPSRFSGSGSGTDFTLTISSLQPEDFATYYCQQYYIYPYTFGTGTKVTVLGGGGGSQVQLQESGPGLVKPSETLSLTCKVSGFSFSSGYDMCWIRQPPGKGLEWIGCVVAGSVDITYYASWAKGRVTISVDSSKNQFSLKLSSVTAADTAVYYCARKDAASDAFNLWGQGTLVTVSSGGGGSGGGGSIQMTQSPSSLSASVGDRVTITCQSSESVYSNNQLSWYQQKPGQPPKLLIYDASDLASGVPSRFSGSGSGTDFTLTISSLQPEDFATYYCAGGFSSSSDTAFGGGTKLTVLGGGGGSGGGGSGGGGSGGGGSEVQLVESGGGLVQPGGSLRLSCAASGFSLSSNAMGWVRQAPGKGLEYIGIISVGGFTYYASWAKGRFTISRDNSKNTVYLQMNSLRAEDTATYFCARDRHGGDSSGAFYLWGQGTLVTVSS
IC50 [1]: 0.0695 µg/mL | IC50 [2]: 88.2 µg/mL

B5: PRO1494 (scFv, V domains shown)
VH: QVQLQESGPGLVKPSETLSLTCKVSGFSFSSGYDMCWIRQPPGKGLEWIGCVVAGSVDITYYASWAKGRVTISVDSSKNQFSLKLSSVTAADTAVYYCARKDAASDAFNLWGQGTLVTVSS
VL: DIQMTQSPSSLSASVGDRVTITCQASQSINDYLAWYQQKPGKAPKLLIYKASTLASGVPSRFSGSGSGTDFTLTISSLQPEDFATYYCQAGYIITDIDNVFGTGTKVTVLG
IC50, neutralization of PD-L1 in NF-AT potency assay [3]: 36.8 µg/mL

B6: PRO1992 (multispecific antibody)
chain 1: DVVMTQSPSSLSASVGDRVTITCQASQIISSRSAWYQQKPGQPPKLLIYQASKLASGVPSRFSGSGSGTDFTLTISSLQPEDFATYYCQCTYIDSNFGAFGTGTKLTVLGGGGGSGGGGSGGGGSGGGGSEVQLVESGGGLVQPGGSLRLSCAASGFSFSSSYWICWVRQAPGKGLEWVGCVFTGDGTTYYASWAKGRFTISRDNSKNTVYLQMNSLRAEDTATYFCARPVSVYYYGMDLWGQGTLVTVSSGGGGSGGGGSDIQMTQSPSSLSASVGDRVTITCKASQDVSIGVAWYQQKPGKAPKLLIYSASYRYTGVPSRFSGSGSGTDFTLTISSLQPEDFATYYCQQYYIYPYTFGCGTKVTVLGGGSGGSDIQMTQSPSSLSASVGDRVTITCQASQSINDYLAWYQQKPGKAPKLLIYKASTLASGVPSRFSGSGSGTDFTLTISSLQPEDFATYYCQAAYIITDIDNVFGTGTKVTVLG
chain 2: DIQMTQSPSSLSASVGDRVTITCQASQSISNRLAWYQQKPGKAPKLLIYSASTLASGVPSRFSGSGSGTDFTLTISSLQPEDFATYYCQSTYYGNDGNAFGCGTKVTVLGGGGGSGGGGSGGGGSGGGGSEVQLVESGGGLVQPGGSLRLSCAASGFSFSANYYPCWVRQAPGKCLEWIGCIYGGSSDITYDANWTKGRFTISRDNSKNTVYLQMNSLRAEDTAVYYCARSAWYSGWGGDLWGQGTLVTVSSGGGGSGGGGSQVQLQESGPGLVKPSETLSLTCKVSGFSFSSGYDMCWIRQPPGKGLEWIGCVVAGSVDITYYASWAKGRVTISVDSSKNQFSLKLSSVTAADTAVYYCARKDAYSDAFNLWGQGTLVTVSSGGGSGGGSEVQLVESGGGLVQPGGSLRLSCAASGFTFTDYTMDWVRQAPGKCLEWVADVNPNSGGSIYNQRFKGRFTLSVDRSKNTLYLQMNSLRAEDTAVYYCARNLGPSFYFDYWGQGTLVTVSS
IC50 [4]: 0.592 µg/mL | EC50, NFkB reporter gene assay, HCC827 cells [5]: 0.253 nM | EC50, NFkB reporter gene assay, HCC1954 cells [5]: 0.0824 nM
